Experimental data reported in IntAct's records for PubMed 18366438.

B1: DNA primase (Geobacillus stearothermophilus), Q9X4D0 (parent)
chain: MGHRIPEETIEAIRRGVDIVDVIGEYVQLKRQGRNYFGLCPFHGEKTPSFSVSPEKQIFHCFGCGAGGNAFTFLMDIEGIPFVEAAKRLAAKAGVDLSVYELDVRGRDDGQTDEAKAMTEAHALLKRFYHHLLVHTKEGQAALDYLQARGWTKETIDRFEIGYAPDAPDAAAKLLESHSFSLPVMEKAGLLTKKEDGRYVGRFRNRIMFPIHDHRGETVGFSGRLLGEGHPKYVNSPETPVFRKGAILYHFHAARVPIRKRQEALLVEGFADVISAAQAGIDYAIATMGTSLTEEQARILRPCDTITICYDGDRAGIEAAWAAAEQLSALGCRVKVASLPNGLDPDEYIRVYGGERFAGEAGCRRPLVAFKMAYLRRGKNLQHEGERLRYIDEALREIGKLSSPVEQDYYLRQLAEEFSLSLSALHEQLSRSQRERTKPREAPDGETARPMLAKKLLPAFQNAERLLLAHMMRSRDVALVVQERIGGRFNIEEHRALAAYIYAFYEEGHEADPGALISRIPGELQPLASDVSLLLIADDVSEQELEDYIRHVLNRPKWLMLKVKEQEKTEAERRKDFLTAARIAKEMIEMKKMLSSS
partner: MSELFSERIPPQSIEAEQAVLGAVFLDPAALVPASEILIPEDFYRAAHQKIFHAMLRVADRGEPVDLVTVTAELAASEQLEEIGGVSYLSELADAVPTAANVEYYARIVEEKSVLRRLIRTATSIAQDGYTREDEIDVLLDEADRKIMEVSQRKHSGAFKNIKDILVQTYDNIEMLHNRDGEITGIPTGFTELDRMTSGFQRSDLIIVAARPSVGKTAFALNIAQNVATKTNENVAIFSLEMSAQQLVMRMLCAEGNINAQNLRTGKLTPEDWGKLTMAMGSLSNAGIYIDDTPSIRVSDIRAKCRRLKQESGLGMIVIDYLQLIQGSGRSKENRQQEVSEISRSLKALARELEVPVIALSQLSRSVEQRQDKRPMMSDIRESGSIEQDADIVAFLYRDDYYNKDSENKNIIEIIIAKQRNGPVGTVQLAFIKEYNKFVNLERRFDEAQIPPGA

Variants of: B1
Conditions: with dnab_geose dnaB

effect of a mutation on the interaction	Variant
decreasing interaction strength	MGHRIPEETIEAIRRGVDIVDVIGEYVQLKRQGRNYFGLCPFHGEKTPSFSVSPEKQIFHCFGCGAGGNAFTFLMDIEGIPFVEAAKRLAAKAGVDLSVYELDVRGRDDGQTDEAKAMTEAHALLKRFYHHLLVHTKEGQAALDYLQARGWTKETIDRFEIGYAPDAPDAAAKLLESHSFSLPVMEKAGLLTKKEDGRYVGRFRNRIMFPIHDHRGETVGFSGRLLGEGHPKYVNSPETPVFRKGAILYHFHAARVPIRKRQEALLVEGFADVISAAQAGIDYAIATMGTSLTEEQARILRPCDTITICYDGDRAGIEAAWAAAEQLSALGCRVKVASLPNGLDPDEYIRVYGGERFAGEAGCRRPLVAFKMAYLRRGKNLQHEGERLRYIDEALREIGKLSSPVEQDYYLRQLAEEFSLSLSALHEQLSRSQRERTKPREAPDGETARPMLAKKLLAAFQNAERLLLAHMMRSRDVALVVQERIGGRFNIEEHRALAAYIYAFYEEGHEADPGALISRIPGELQPLASDVSLLLIADDVSEQELEDYIRHVLNRPKWLMLKVKEQEKTEAERRKDFLTAARIAKEMIEMKKMLSSS [P458A]

Variants of: B1
Conditions: with dnab_geose dnaB
Remark: another data set of the same source

effect of a mutation on the interaction	Variant
decreasing interaction strength	MGHRIPEETIEAIRRGVDIVDVIGEYVQLKRQGRNYFGLCPFHGEKTPSFSVSPEKQIFHCFGCGAGGNAFTFLMDIEGIPFVEAAKRLAAKAGVDLSVYELDVRGRDDGQTDEAKAMTEAHALLKRFYHHLLVHTKEGQAALDYLQARGWTKETIDRFEIGYAPDAPDAAAKLLESHSFSLPVMEKAGLLTKKEDGRYVGRFRNRIMFPIHDHRGETVGFSGRLLGEGHPKYVNSPETPVFRKGAILYHFHAARVPIRKRQEALLVEGFADVISAAQAGIDYAIATMGTSLTEEQARILRPCDTITICYDGDRAGIEAAWAAAEQLSALGCRVKVASLPNGLDPDEYIRVYGGERFAGEAGCRRPLVAFKMAYLRRGKNLQHEGERLRYIDEALREIGKLSSPVEQDYYLRQLAEEFSLSLSALHEQLSRSQRERTKPREAPDGETARPMLAKKLLPAFQNAERLLLAHMMRSRDVALVVQERIGGRFNIEEHRALAAYIYAFYEEGHEADPGALISRIPGELQPLASDVSLLLIADDVSEQELEDAIRHVLNRPKWLMLKVKEQEKTEAERRKDFLTAARIAKEMIEMKKMLSSS [Y548A]
